Measured values published in US20260152553A1.

Target: CD19/CD20 bispecific CAR (Leu16 scFv-(G4S)4-FMC63 scFv-IgG4 hinge-CD28 TM-4-1BB-CD3 zeta)
Assay: flow cytometry, staining of T cells (donor 1917) transduced with CD19/20 CAR lentiviral vector

Chain of CD19/CD20 bispecific CAR (Leu16 scFv-(G4S)4-FMC63 scFv-IgG4 hinge-CD28 TM-4-1BB-CD3 zeta) (chain, as listed by the source): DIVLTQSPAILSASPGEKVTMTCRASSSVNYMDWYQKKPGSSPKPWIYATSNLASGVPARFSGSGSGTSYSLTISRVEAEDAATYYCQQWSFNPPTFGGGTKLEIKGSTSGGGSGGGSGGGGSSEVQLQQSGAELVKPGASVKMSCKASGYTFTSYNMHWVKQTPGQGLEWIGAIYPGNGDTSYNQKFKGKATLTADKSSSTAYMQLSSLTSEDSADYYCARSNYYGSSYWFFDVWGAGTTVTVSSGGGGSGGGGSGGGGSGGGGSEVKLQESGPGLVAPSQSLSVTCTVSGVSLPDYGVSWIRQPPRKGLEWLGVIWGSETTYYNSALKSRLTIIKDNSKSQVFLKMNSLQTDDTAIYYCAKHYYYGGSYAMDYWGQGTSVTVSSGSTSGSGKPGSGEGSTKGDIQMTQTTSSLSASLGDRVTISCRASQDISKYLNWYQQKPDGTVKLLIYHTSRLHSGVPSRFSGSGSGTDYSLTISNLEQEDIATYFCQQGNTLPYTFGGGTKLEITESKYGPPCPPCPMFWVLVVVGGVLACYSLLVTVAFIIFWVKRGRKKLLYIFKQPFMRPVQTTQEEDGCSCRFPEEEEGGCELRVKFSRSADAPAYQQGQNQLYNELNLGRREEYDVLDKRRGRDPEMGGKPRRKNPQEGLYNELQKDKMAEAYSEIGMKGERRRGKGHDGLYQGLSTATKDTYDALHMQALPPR

## Byotinilated anti-FMC63 (Acros) (antibody)
  % Positive Cells: 59.6%
